The test system of the data set is Escherichia coli TOP10. Description: shrunken log2 fold change of peptide-encoding DNA abundance (4.5 h post-induction vs induction); higher = less antimicrobial activity (less host growth inhibition). As to conditions: time post-induction: 4.5 h; library: site-saturation at positions 5, 18, 19, 20.
As to RRIRTRPPRLPRPRPRPKQIPRP, the “shrunken log2 fold change” value was determined as 0.0644.
For RRIRMRPPRLPRPRPRPQMHPRP, the “shrunken log2 fold change” value was 0.947.
As for RRIRKRPPRLPRPRPRPPTFPRP, the “shrunken log2 fold change” value came out at 0.149.
The value for RRIRHRPPRLPRPRPRPWGTPRP was -0.44.
As to RRIRWRPPRLPRPRPRPAANPRP, the “shrunken log2 fold change” value is -0.136.
Turning to RRIRIRPPRLPRPRPRPTLFPRP, the “shrunken log2 fold change” value was -0.131.
In the case of RRIRHRPPRLPRPRPRPKIGPRP, the “shrunken log2 fold change” value is 0.0776.
Consider RRIRDRPPRLPRPRPRPTHDPRP, for which the “shrunken log2 fold change” value worked out at 0.666.
As to RRIRQRPPRLPRPRPRPNTHPRP, the “shrunken log2 fold change” value was -0.203.
Then RRIRERPPRLPRPRPRPVPVPRP, with 0.0913; and RRIRGRPPRLPRPRPRPRSYPRP, with 0.288.
For the sequence RRIRLRPPRLPRPRPRPRLYPRP, the “shrunken log2 fold change” value is -0.26.
With RRIRWRPPRLPRPRPRPEVWPRP, the “shrunken log2 fold change” value stood at 0.966.
As to RRIRLRPPRLPRPRPRPQWLPRP, the “shrunken log2 fold change” value was -0.141.
The value for RRIRSRPPRLPRPRPRPAGEPRP was 0.0686; that for RRIRCRPPRLPRPRPRPQFGPRP was -0.233.
As to RRIRARPPRLPRPRPRPWEKPRP, the “shrunken log2 fold change” value is -0.164.
With RRIRFRPPRLPRPRPRPQKVPRP, the “shrunken log2 fold change” value is -0.194.
As to RRIRNRPPRLPRPRPRPFTLPRP, the “shrunken log2 fold change” value is -0.884.
As to RRIRQRPPRLPRPRPRPQHAPRP, the “shrunken log2 fold change” value was -0.476.
As for RRIRTRPPRLPRPRPRPPPDPRP, the “shrunken log2 fold change” value was determined as 0.58.
As to RRIRPRPPRLPRPRPRPSITPRP, the “shrunken log2 fold change” value is -0.401.
As for RRIRNRPPRLPRPRPRPVLRPRP, the “shrunken log2 fold change” value was found to be 0.00524.
On to RRIRYRPPRLPRPRPRPLGAPRP, for which the “shrunken log2 fold change” value is -0.103.
The value for RRIRIRPPRLPRPRPRPMWLPRP was -0.233.
RRIRKRPPRLPRPRPRPREDPRP: the “shrunken log2 fold change” value is 0.346.
Then RRIRNRPPRLPRPRPRPTCKPRP, with -0.0431; and RRIRHRPPRLPRPRPRPLITPRP, with -0.324; and RRIRFRPPRLPRPRPRPCCDPRP, with -0.239.
RRIRHRPPRLPRPRPRPIPAPRP: the “shrunken log2 fold change” value stood at 0.32.
On to RRIRERPPRLPRPRPRPCWAPRP, for which the “shrunken log2 fold change” value came out at 0.00771.
Consider RRIRLRPPRLPRPRPRPALGPRP, for which the “shrunken log2 fold change” value was found to be 0.935.
RRIRPRPPRLPRPRPRPRYPPRP: the “shrunken log2 fold change” value is 0.202.
Consider RRIRRRPPRLPRPRPRPPQYPRP, for which the “shrunken log2 fold change” value was determined as 1.12.
Turning to RRIRIRPPRLPRPRPRPCRSPRP, the “shrunken log2 fold change” value is -0.365.
On to RRIRARPPRLPRPRPRPQTLPRP, for which the “shrunken log2 fold change” value came to 0.0847.
Then RRIRWRPPRLPRPRPRPCIKPRP, with 0.0427; and RRIRARPPRLPRPRPRPCHNPRP, with -0.161.
As for RRIRCRPPRLPRPRPRPNMHPRP, the “shrunken log2 fold change” value is -0.615.
The value for RRIRRRPPRLPRPRPRPRYNPRP was -0.132; that for RRIRYRPPRLPRPRPRPVGHPRP was -0.076.
The value for RRIRLRPPRLPRPRPRPQTGPRP was -0.247; that for RRIRIRPPRLPRPRPRPTYDPRP was -1.08; that for RRIRFRPPRLPRPRPRPVQTPRP was 0.0206.
Then RRIRIRPPRLPRPRPRPQRKPRP, with -0.104; and RRIRPRPPRLPRPRPRPCAEPRP, with 0.27; and RRIRTRPPRLPRPRPRPPRIPRP, with 0.27.
As for RRIRGRPPRLPRPRPRPPLAPRP, the “shrunken log2 fold change” value was determined as 1.35.
With RRIRVRPPRLPRPRPRPRQFPRP, the “shrunken log2 fold change” value came to 0.238.
Then RRIRPRPPRLPRPRPRPRWDPRP, with -0.0161; and RRIRQRPPRLPRPRPRPLQSPRP, with -0.0698; and RRIRYRPPRLPRPRPRPNKKPRP, with -0.298.
On to RRIRCRPPRLPRPRPRPFPYPRP, for which the “shrunken log2 fold change” value is -0.645.
In the case of RRIRTRPPRLPRPRPRPGMWPRP, the “shrunken log2 fold change” value was 0.158.
Then RRIRNRPPRLPRPRPRPFAFPRP, with -0.74.
As for RRIRARPPRLPRPRPRPQEYPRP, the “shrunken log2 fold change” value is 0.0643.
As for RRIRTRPPRLPRPRPRPIANPRP, the “shrunken log2 fold change” value came to 0.207.
With RRIRKRPPRLPRPRPRPEDMPRP, the “shrunken log2 fold change” value is 0.0387.
For RRIRYRPPRLPRPRPRPDTVPRP, the “shrunken log2 fold change” value worked out at 0.019.
As for RRIRERPPRLPRPRPRPTNTPRP, the “shrunken log2 fold change” value was -0.697.
On to RRIRIRPPRLPRPRPRPGLMPRP, for which the “shrunken log2 fold change” value was -0.0194.
Take RRIRQRPPRLPRPRPRPHSNPRP: the “shrunken log2 fold change” value is -0.0311.
With RRIRMRPPRLPRPRPRPHQSPRP, the “shrunken log2 fold change” value was -0.318.
Take RRIRRRPPRLPRPRPRPRRSPRP: the “shrunken log2 fold change” value amounted to 0.516.
RRIRQRPPRLPRPRPRPWPSPRP: the “shrunken log2 fold change” value is 0.168.
Turning to RRIRPRPPRLPRPRPRPHIVPRP, the “shrunken log2 fold change” value is -0.481.
The value for RRIRQRPPRLPRPRPRPMWRPRP was 0.279; that for RRIRGRPPRLPRPRPRPQSHPRP was 0.214.
Turning to RRIRKRPPRLPRPRPRPYYKPRP, the “shrunken log2 fold change” value is -0.445.
Consider RRIRFRPPRLPRPRPRPDMLPRP, for which the “shrunken log2 fold change” value is -0.125.
RRIRARPPRLPRPRPRPFPIPRP: the “shrunken log2 fold change” value was 0.264.
Regarding RRIRKRPPRLPRPRPRPGYAPRP, the “shrunken log2 fold change” value was 0.223.
In the case of RRIRPRPPRLPRPRPRPSYEPRP, the “shrunken log2 fold change” value was -0.178.
The value for RRIRDRPPRLPRPRPRPTYNPRP was -0.365.
The value for RRIRNRPPRLPRPRPRPGMCPRP was -0.0316; that for RRIRTRPPRLPRPRPRPDYMPRP was -0.687.
In the case of RRIRVRPPRLPRPRPRPQEQPRP, the “shrunken log2 fold change” value is 0.0925.
As for RRIRPRPPRLPRPRPRPMIHPRP, the “shrunken log2 fold change” value was -0.696.
The value for RRIRQRPPRLPRPRPRPRMLPRP was -0.0148.
Regarding RRIRKRPPRLPRPRPRPYSEPRP, the “shrunken log2 fold change” value was -0.269.
On to RRIRWRPPRLPRPRPRPKHQPRP, for which the “shrunken log2 fold change” value is 0.195.
RRIRMRPPRLPRPRPRPQWLPRP: the “shrunken log2 fold change” value stood at 0.351.
Take RRIRDRPPRLPRPRPRPNYSPRP: the “shrunken log2 fold change” value is -0.792.
With RRIRIRPPRLPRPRPRPDNDPRP, the “shrunken log2 fold change” value was -0.115.
Turning to RRIRHRPPRLPRPRPRPFTIPRP, the “shrunken log2 fold change” value is -0.0345.
Consider RRIRFRPPRLPRPRPRPWLGPRP, for which the “shrunken log2 fold change” value is 0.0212.
For the sequence RRIRHRPPRLPRPRPRPGNKPRP, the “shrunken log2 fold change” value is -0.089.
On to RRIRNRPPRLPRPRPRPYWGPRP, for which the “shrunken log2 fold change” value turned out to be 0.0237.
For RRIRARPPRLPRPRPRPDEDPRP, the “shrunken log2 fold change” value was found to be 2.09.
RRIRHRPPRLPRPRPRPLWWPRP: the “shrunken log2 fold change” value was 0.237.
Then RRIRFRPPRLPRPRPRPHDQPRP, with 0.0225; and RRIRDRPPRLPRPRPRPRGGPRP, with 0.726.
On to RRIRHRPPRLPRPRPRPPYDPRP, for which the “shrunken log2 fold change” value was -0.0114.
As to RRIRKRPPRLPRPRPRPGNEPRP, the “shrunken log2 fold change” value stood at 0.204.
For RRIRWRPPRLPRPRPRPVPQPRP, the “shrunken log2 fold change” value stood at 0.282.
With RRIRQRPPRLPRPRPRPQYKPRP, the “shrunken log2 fold change” value was -0.314.
As for RRIRKRPPRLPRPRPRPTAVPRP, the “shrunken log2 fold change” value is 0.284.
On to RRIRARPPRLPRPRPRPEMNPRP, for which the “shrunken log2 fold change” value turned out to be 0.655.
In the case of RRIRRRPPRLPRPRPRPSTEPRP, the “shrunken log2 fold change” value was found to be 0.664.
Take RRIRHRPPRLPRPRPRPKIPPRP: the “shrunken log2 fold change” value was -0.254.
As for RRIRRRPPRLPRPRPRPERGPRP, the “shrunken log2 fold change” value was 0.798.
For RRIRPRPPRLPRPRPRPRQYPRP, the “shrunken log2 fold change” value is -0.257.
With RRIRTRPPRLPRPRPRPVHWPRP, the “shrunken log2 fold change” value amounted to 0.842.
Then RRIRSRPPRLPRPRPRPNLHPRP, with -0.219.
For the sequence RRIRWRPPRLPRPRPRPSDNPRP, the “shrunken log2 fold change” value was -0.14.
Turning to RRIRERPPRLPRPRPRPHCQPRP, the “shrunken log2 fold change” value amounted to 0.00361.
Take RRIRRRPPRLPRPRPRPFNDPRP: the “shrunken log2 fold change” value was found to be 0.0417.
Then RRIRFRPPRLPRPRPRPFKRPRP, with -0.813; and RRIRFRPPRLPRPRPRPLHIPRP, with -0.7.
Regarding RRIRQRPPRLPRPRPRPCMDPRP, the “shrunken log2 fold change” value stood at 0.00489.
As to RRIRMRPPRLPRPRPRPSLLPRP, the “shrunken log2 fold change” value turned out to be 0.0721.
With RRIRYRPPRLPRPRPRPRTLPRP, the “shrunken log2 fold change” value was -0.537.
As for RRIRGRPPRLPRPRPRPWIMPRP, the “shrunken log2 fold change” value is -0.209.
Turning to RRIRVRPPRLPRPRPRPDDHPRP, the “shrunken log2 fold change” value is -0.106.
For the sequence RRIRTRPPRLPRPRPRPQHNPRP, the “shrunken log2 fold change” value is -0.324.
Turning to RRIRQRPPRLPRPRPRPRRMPRP, the “shrunken log2 fold change” value is 0.455.
The value for RRIRPRPPRLPRPRPRPACYPRP was -0.199; that for RRIRPRPPRLPRPRPRPNKNPRP was -0.24.
In the case of RRIRVRPPRLPRPRPRPGSVPRP, the “shrunken log2 fold change” value is -0.269.
With RRIRRRPPRLPRPRPRPRCNPRP, the “shrunken log2 fold change” value is -0.223.
For RRIRGRPPRLPRPRPRPYSQPRP, the “shrunken log2 fold change” value is -0.621.
For RRIRHRPPRLPRPRPRPYVLPRP, the “shrunken log2 fold change” value was -0.14.
For the sequence RRIRLRPPRLPRPRPRPGKDPRP, the “shrunken log2 fold change” value is -0.153.
Regarding RRIRPRPPRLPRPRPRPLLEPRP, the “shrunken log2 fold change” value amounted to 0.059.
Turning to RRIRARPPRLPRPRPRPNDLPRP, the “shrunken log2 fold change” value was found to be 0.172.

The values are drawn from the supplement of paper PMC9112550, “Optimization of the antimicrobial peptide Bac7 by deep mutational scanning” (BMC Biology, 2022).
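Note: peptides expressed intracellularly from a pBAD plasmid library in pooled LB shake-flask culture, induced with 0.3% L-arabinose, DNA abundance read by NGS, three biological replicates, DESeq2 with apeglm shrinkage.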
